“Also recorded” adds a separate entry of the source.
What was measured:
[1] = tested on: CHL cells transfected with the vector alone; test: binding of 125I-VIP to CHL cells transfected with vector alone; parameters: species or system Chinese hamster; settings: data not shown
Description: Stable transformants were selected in the presence of G418 (0.8 mg/ml, GIBCO/BRL, Gaithersburg, Md.). […] Each peptide concentration prepared in Hfank's balanced salt solution containing 20 mM HEPES, pH 7.4, 0.5% BSA and 0.1 mM phenylmethylsulfonyl-fluoride (PMSF) was added in triplicates to intact cells. Following the incubation, the cells were washed two times with ice-cold PBS, lysed with 1 N NaOH, and radioactivity measured in gamma counter. […] The maximum specific binding was 5%. The variation among triplicate values was 10%.

[2] = target: T1, recombinant human PACAP/VIP R-2 receptor (Homo sapiens, UniProt P41587); test: stimulation of intracellular cAMP in cells expressing recombinant receptor; format: cell-based; settings: FIG. 2B; for stimulation of intracellular cAMP formation (in words) / peptide concentration at maximum stimulation of cAMP levels: CHL cells; for stimulation of intracellular cAMP formation (in words): 45 minutes at 37° C., secretin, glucagon, GLP-I and GLP-II at μM concentrations
T1 construct: expressed in transfected cells
T1 sequence (P41587 24-438 R412H/G424A): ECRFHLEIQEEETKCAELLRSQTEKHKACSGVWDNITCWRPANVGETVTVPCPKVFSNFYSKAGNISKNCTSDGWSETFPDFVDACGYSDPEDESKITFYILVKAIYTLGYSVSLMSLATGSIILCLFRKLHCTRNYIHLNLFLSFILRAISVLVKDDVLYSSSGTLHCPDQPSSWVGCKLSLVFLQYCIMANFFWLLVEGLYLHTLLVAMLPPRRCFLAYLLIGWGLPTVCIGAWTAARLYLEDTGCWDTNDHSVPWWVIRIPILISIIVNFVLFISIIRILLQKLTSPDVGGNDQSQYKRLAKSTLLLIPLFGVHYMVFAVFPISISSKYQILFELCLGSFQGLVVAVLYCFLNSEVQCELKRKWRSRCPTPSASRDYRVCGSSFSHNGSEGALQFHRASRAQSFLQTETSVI
Description: Data points represent an average of two separate determinations (n=6), except for secretin (n=3) (see Materials and Methods). The variation among individual points was 5%.

[3] = target: T1, recombinant human PACAP/VIP R-2 receptor; test: competitive binding with 125I-VIP, CHL cells expressing recombinant receptor
Description: Data points represent an average of two separate experiments (n=6). The variation among individual points was 10% (see Materials and Methods).
Each peptide concentration prepared in Hfank's balanced salt solution containing 20 mM HEPES, pH 7.4, 0.5% BSA and 0.1 mM phenylmethylsulfonyl-fluoride (PMSF) was added in triplicates to intact cells. Following the incubation, the cells were washed two times with ice-cold PBS, lysed with 1 N NaOH, and radioactivity measured in gamma counter. […] The variation among triplicate values was 10%.

[4] = tested on: CHL cells transfected with vector alone; test: intracellular cAMP in CHL cells transfected with vector alone; format: cell-based, Chinese hamster; settings: 1.1 μM; data not shown
Description: Cells were grown in 24-well plates to about 50% confluence. They were washed twice with the incubation buffer (Macy's 5A pH 7.4, containing 20 mM HEPES, 0.5% BSA and 0.5 mM IBMX) and incubated with different concentration of synthetic peptides added in triplicates (μM-pM) for 45 minutes at 37° C. In each experiment forskolin (10 μM, Sigma, St. Louis, Mo.) was added as a positive control. After removal of the medium, cells were washed twice with PBS and lysed with 95% ethanol. The suspension was centrifuged at 13,000 rpm for 3 minutes, and supernatants were taken to dryness in a speed vacuum. The contents were reconstituted in 0.05 M acetate buffer (0.5 ml) and cAMP levels measured using the cAMP Biotrak SPA system (Amersham, Arlington Heights, Ill.). The variation among triplicate values was 5%. The data shown in FIG. 2B are average of two separate incubations (n=6), except for secretin (n=3).

insulin secretion = settings: Yada et al., 1994; cited from earlier work
[5] = 125I-VIP 44 pM, whole CHL cells

Substance	stimulation of intracellular cAMP formation (in words) [2]	displacement of 125I-VIP binding (in words) [3, 5]	further results
125I-VIP: radioiodinated VIP (2000 Ci/mmol, Amersham)	–	–	binding of 125I-VIP to vector-transfected cells [1]: did not bind
PACAP-27	stimulated intracellular cAMP formation in a dose dependent manner	complete displacement of ^125 I-VIP binding to the recombinant PACAP/VIP R-2 was not obtainable at high PACAP-27 concentration	peptide concentration at maximum stimulation of cAMP levels [2]: 100 nM; IC50 ([3]; read-out: ID50, displacement of 125I-VIP binding, 125I-VIP 44 pM, whole CHL cells, 15-18 hour at 4° C., VIP and PACAP-27 values estimated (incomplete displacement)): 37 nM
PACAP-38: 38-amino acid form of pituitary adenylate cyclase activating polypeptide; synthetic, purchased from Peninsula	stimulated intracellular cAMP formation in a dose dependent manner	displaced in a dose dependent manner	change of intracellular cAMP in vector-transfected cells [4]: No change of intracellular cAMP was detected; cAMP response at supraphysiological concentration ([2]; 1 μM PACAP-38): sharp drop to baseline levels; peptide concentration at maximum stimulation of cAMP levels [2]: 100 nM; relative affinity for the receptor (in words) ([3]; competitive binding, whole cells): higher affinity than PACAP-27; also recorded: slightly higher affinity for PACAP-38 than for VIP; stimulation of insulin secretion (insulin secretion): ability to stimulate insulin secretion
glucagon-like peptide-I [GLP-I]	did not show any stimulation	did not displace this binding	–
glucagon-like peptide-II [GLP-II]	did not show any stimulation	did not displace this binding	–
glucagon: glucagon	did not show any stimulation	did not displace this binding	–
secretin: synthetic secretin purchased from Peninsula; high sequence homology to PACAP and VIP	Some increase of intracellular cAMP levels	–	high concentration at which 125I-VIP binding was displaced ([3]; 125I-VIP, FIG. 2A): 3.8 µM

From patent US6316596A, “Receptor for peptide hormones involving in energy homeostasis” (The Rockefeller University, priority 1998, dated 2001)
